The text below walks through data of the supplement of paper PMC9112550, “Optimization of the antimicrobial peptide Bac7 by deep mutational scanning” (BMC Biology, 2022).

The data set has as its system Escherichia coli TOP10. Briefly: shrunken log2 fold change of peptide-encoding DNA abundance (4.5 h post-induction vs induction); higher = less antimicrobial activity (less host growth inhibition). Conditions: time post-induction: 4.5 h; library: site-saturation at positions 5, 18, 19, 20.
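Also: peptides expressed intracellularly from a pBAD plasmid library in pooled LB shake-flask culture, induced with 0.3% L-arabinose, DNA abundance read by NGS, three biological replicates, DESeq2 with apeglm shrinkage.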

As to RRIRIRPPRLPRPRPRPVFHPRP, the “shrunken log2 fold change” value is -0.936. Consider RRIRNRPPRLPRPRPRPPYNPRP, for which the “shrunken log2 fold change” value is -0.627. For RRIRCRPPRLPRPRPRPCFVPRP the value was -0.235. RRIRARPPRLPRPRPRPRMFPRP: the “shrunken log2 fold change” value was found to be 0.345. The result for RRIRHRPPRLPRPRPRPFMPPRP reads -0.146. For RRIRCRPPRLPRPRPRPLCVPRP the value was -0.481. For RRIRARPPRLPRPRPRPYCHPRP the value was -0.381; for RRIRSRPPRLPRPRPRPLYNPRP, -0.344; for RRIRARPPRLPRPRPRPWSHPRP, -0.186. RRIRVRPPRLPRPRPRPSHDPRP: the “shrunken log2 fold change” value was -0.159. For RRIRYRPPRLPRPRPRPNVQPRP the value was -0.0298; for RRIRVRPPRLPRPRPRPVLGPRP, 0.299. For RRIRNRPPRLPRPRPRPVWNPRP the value was -0.0723; for RRIRGRPPRLPRPRPRPKNPPRP, 0.489; for RRIRRRPPRLPRPRPRPHWDPRP, -0.0203. For the sequence RRIRARPPRLPRPRPRPPLSPRP, the “shrunken log2 fold change” value was 0.549.

Turning to RRIRERPPRLPRPRPRPYNWPRP, the “shrunken log2 fold change” value was -0.276. The result for RRIRRRPPRLPRPRPRPTCRPRP reads 0.41. Regarding RRIRYRPPRLPRPRPRPPPAPRP, the “shrunken log2 fold change” value was determined as 0.878. Turning to RRIRERPPRLPRPRPRPFNIPRP, the “shrunken log2 fold change” value was -0.0814. In the case of RRIRSRPPRLPRPRPRPYRNPRP, the “shrunken log2 fold change” value is -0.254.

For the sequence RRIRVRPPRLPRPRPRPFLFPRP, the “shrunken log2 fold change” value is -0.205.

Take RRIRSRPPRLPRPRPRPNNMPRP: the “shrunken log2 fold change” value was -0.534. As to RRIRMRPPRLPRPRPRPDGAPRP, the “shrunken log2 fold change” value came out at 2.17. For RRIRPRPPRLPRPRPRPWPCPRP the value was 0.0872. The result for RRIRQRPPRLPRPRPRPAFNPRP reads 0.18; that for RRIRRRPPRLPRPRPRPCMFPRP, -0.0745.

Take RRIRVRPPRLPRPRPRPEQQPRP: the “shrunken log2 fold change” value was 0.0394. The result for RRIRDRPPRLPRPRPRPHQMPRP reads 0.00713; that for RRIRCRPPRLPRPRPRPKNEPRP, -0.1; that for RRIRGRPPRLPRPRPRPVDLPRP, 0.687. The result for RRIRMRPPRLPRPRPRPWPMPRP reads 0.304; that for RRIRARPPRLPRPRPRPSTKPRP, 0.076; that for RRIRKRPPRLPRPRPRPKWNPRP, 0.392. Consider RRIRWRPPRLPRPRPRPREPPRP, for which the “shrunken log2 fold change” value turned out to be 0.35. The result for RRIRSRPPRLPRPRPRPKWHPRP reads 0.0951; that for RRIRKRPPRLPRPRPRPRMMPRP, 0.492; that for RRIRNRPPRLPRPRPRPIWFPRP, 0.205. Take RRIRCRPPRLPRPRPRPQLLPRP: the “shrunken log2 fold change” value was -0.23. The result for RRIRMRPPRLPRPRPRPFMTPRP reads 0.0622; that for RRIRDRPPRLPRPRPRPHREPRP, 0.0506; that for RRIRLRPPRLPRPRPRPVCYPRP, -0.156. For RRIRYRPPRLPRPRPRPPWAPRP the value was 0.449.

In the case of RRIRQRPPRLPRPRPRPLICPRP, the “shrunken log2 fold change” value was -0.0973. The result for RRIRTRPPRLPRPRPRPNFCPRP reads -0.126.

Regarding RRIRARPPRLPRPRPRPCPAPRP, the “shrunken log2 fold change” value turned out to be 0.209. For RRIRARPPRLPRPRPRPASCPRP the value was 0.295.

As to RRIRPRPPRLPRPRPRPLKVPRP, the “shrunken log2 fold change” value was -0.107. For RRIRVRPPRLPRPRPRPHGGPRP the value was -0.0243; for RRIRERPPRLPRPRPRPELHPRP, 0.0652. The result for RRIRCRPPRLPRPRPRPCFNPRP reads 0.713; that for RRIRWRPPRLPRPRPRPTNHPRP, -0.245; that for RRIRKRPPRLPRPRPRPLEFPRP, 0.124. The result for RRIRGRPPRLPRPRPRPWWQPRP reads 0.644. For RRIRFRPPRLPRPRPRPVNCPRP, the “shrunken log2 fold change” value is -0.15. The result for RRIRSRPPRLPRPRPRPSAFPRP reads -0.0159; that for RRIRPRPPRLPRPRPRPGNKPRP, -0.0476; that for RRIRFRPPRLPRPRPRPYNTPRP, -1.1. The result for RRIRYRPPRLPRPRPRPSAQPRP reads -0.17; that for RRIRTRPPRLPRPRPRPDREPRP, -0.0115. For RRIRSRPPRLPRPRPRPHGKPRP, the “shrunken log2 fold change” value was -0.18. For RRIRMRPPRLPRPRPRPGCPPRP the value was 0.521; for RRIRLRPPRLPRPRPRPIYLPRP, -0.654.
